How the values were obtained:
[1] = target: human NRP1 protein (human) (UniProt O14786); assay: SPR, Biacore T100
[2] = target: NRP1 expressed on the surface of cancer cells (NRP1-overexpressing patient-derived cells; U87MG glioblastoma cell line) (human) (UniProt O14786); assay: cell-based or functional assay
NRP1 expressed on the surface of cancer cells (NRP1-overexpressing patient-derived cells; U87MG glioblastoma cell line) (human), sequence (O14786 22-923): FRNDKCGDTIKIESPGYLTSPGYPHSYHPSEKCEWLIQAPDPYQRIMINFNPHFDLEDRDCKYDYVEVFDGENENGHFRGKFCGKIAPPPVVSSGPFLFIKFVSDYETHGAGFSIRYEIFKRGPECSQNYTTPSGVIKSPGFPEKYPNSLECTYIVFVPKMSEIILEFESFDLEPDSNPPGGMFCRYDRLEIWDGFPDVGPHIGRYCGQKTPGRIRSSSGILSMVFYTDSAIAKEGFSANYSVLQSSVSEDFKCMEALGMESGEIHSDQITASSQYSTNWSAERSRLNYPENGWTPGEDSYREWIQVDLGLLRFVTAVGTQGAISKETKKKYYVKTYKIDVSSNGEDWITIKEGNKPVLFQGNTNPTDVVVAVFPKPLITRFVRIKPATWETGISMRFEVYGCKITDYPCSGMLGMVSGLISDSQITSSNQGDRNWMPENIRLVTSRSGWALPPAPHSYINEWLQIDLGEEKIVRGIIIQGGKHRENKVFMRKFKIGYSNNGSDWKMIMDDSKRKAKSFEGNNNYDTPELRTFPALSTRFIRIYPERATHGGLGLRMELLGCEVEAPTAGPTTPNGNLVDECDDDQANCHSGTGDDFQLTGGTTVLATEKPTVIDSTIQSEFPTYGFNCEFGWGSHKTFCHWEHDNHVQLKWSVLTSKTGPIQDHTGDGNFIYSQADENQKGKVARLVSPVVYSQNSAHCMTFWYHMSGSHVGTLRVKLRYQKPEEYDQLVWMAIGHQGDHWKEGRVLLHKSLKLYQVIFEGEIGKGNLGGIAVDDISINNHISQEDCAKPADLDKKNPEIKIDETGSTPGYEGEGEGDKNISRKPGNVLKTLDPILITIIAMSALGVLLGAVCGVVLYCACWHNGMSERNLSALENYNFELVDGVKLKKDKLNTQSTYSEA

human NRP1 protein (human), sequence (O14786 other isoform, or with tags, fused parts or gaps limits assumed): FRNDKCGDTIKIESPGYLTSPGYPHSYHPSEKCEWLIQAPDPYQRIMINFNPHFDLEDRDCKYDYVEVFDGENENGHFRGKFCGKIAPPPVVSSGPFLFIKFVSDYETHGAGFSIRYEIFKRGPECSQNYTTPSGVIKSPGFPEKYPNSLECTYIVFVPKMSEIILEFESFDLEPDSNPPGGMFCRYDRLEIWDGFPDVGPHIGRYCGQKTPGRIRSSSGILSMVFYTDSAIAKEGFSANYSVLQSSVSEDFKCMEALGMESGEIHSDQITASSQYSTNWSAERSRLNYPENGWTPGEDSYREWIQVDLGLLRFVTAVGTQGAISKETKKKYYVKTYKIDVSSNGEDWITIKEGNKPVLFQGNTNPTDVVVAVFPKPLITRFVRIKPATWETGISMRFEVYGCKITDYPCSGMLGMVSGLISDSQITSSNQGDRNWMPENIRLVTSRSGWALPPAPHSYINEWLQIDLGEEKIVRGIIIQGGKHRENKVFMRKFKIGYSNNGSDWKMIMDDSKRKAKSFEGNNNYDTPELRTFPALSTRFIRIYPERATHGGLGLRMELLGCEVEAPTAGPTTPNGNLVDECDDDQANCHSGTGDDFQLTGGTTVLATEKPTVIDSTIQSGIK

| Binder | Kd [1] [nM] | cell migration of U87MG cells (transwell), untreated control = 100% [2] [%] |
| --- | --- | --- |
| 1A03 scFv antibody fragment (scFv, part only; not given: linker, domain order, His and HA tags, V domains shown, not shown: another chain or arm of the molecule; large carriers; small tags and cut ends) VH: EVQLLESGGGLVQPGGSLRLSCAASGFTFSSYYMSWVRQAPGKGLEWVSAISPGSSNKYYADSVQGRFTISRDNSKNTLYLQMNSLRAEDTAVYYCARRKKSFDYWGQGTLVTVSS VL: QSVLTQPPSASGTPGQRVTISCSGPSSNIGNNDVSWYQQLPGTAPKLLIYSDNNRPSGVPDRFSGSKSGTSASLAISGLRSEDEADYYCGAWVASLSAYVFGGGTKLTVL | 89.4 | 41 |
| 3H10 scFv antibody fragment (scFv, part only; not given: linker, domain order, His and HA tags, V domains shown, not shown: another chain or arm of the molecule; large carriers; small tags and cut ends) VH: EVQLLESGGGLVQPGGSLRLSCAASGFTFSSYYMSWVRQAPGKGLEWVSAISPGSSNKYYADSVKGRFTISRDNSKNTLYLQMNSLRAEDTAVYYCARRKYMFDYWGQGTLVTVSS VL: QSVLTQPPSASGTPGQRVTISCTGSSSNIGNNDVYWYQQLPGTAPKLLIYSDSNRPSGVPDRFSGSKSGTSASLAISGLRSEDEADYYCASWDSSLSGYVFGGGTKLTVL | 295 | 46 |

— patent publication US20170291948A1
